Measurements as given in patent US20240417437A1, “Linker Polypeptides” (Trutino Biosciences Inc., priority 2021, published 2024).
Residue numbers refer to the chain shown, from its start. Numbers in names are those of the source. One block for each molecule: values may come before it.

Experiments:
fibronectin = fibronectin (Homo sapiens, UniProt P02751); assay: Fusion protein plate binding assay on fibronectin
Method: A similar plate-based assay was developed to interrogate binding of IL-2 fusion variants to fibronectin. 96-well plates were coated with fibronectin (4-10 μg/mL, Sigma) or control BSA for 18-22 hours at room temperature on shaker (350 rpm). After washing, wells were blocked with 2% milk powder in PBS-0.05% Tween 20 or protein-free blocking buffer (Pierce) for 90 min, then fusion proteins were titrated in blocking buffer-0.1% Tween 20, pH 7.5 and/or pH 6, and added for 1 hour at room temperature with shaking. After washing, an anti-mouse IL-2 biotin-labelled detection antibody (JES6-5H4, ThermoFisher) or anti-human IgG HRP conjugate antibody (SouthernBiotech) was added, and binding was detected using Ultra Streptavidin HRP (ThermoFisher). The plate was developed by adding the chromogenic tetramethylbenzidine substrate (Ultra TMB, ThermoFisher). The reaction was stopped by addition of 0.5 M H2SO4, and the absorbance was read at 450-650 nm.

[1] = assay type: binding; conditions: for fusion protein binding to heparin: pH 6
Method: 96-well plates were coated with 10 μg/mL of Heparin-BSA conjugate (provided by Dr. Mueller, Boerhinger Ingelheim) or control BSA for 18-22 hours at room temperature on shaker (350 rpm). After washing, wells are blocked with 2% milk powder in PBS-0.05% Tween 20 or PBS-0.05% Tween 20/1% BSA for 90 minutes. The fusion proteins were then titrated in either 2% milk powder in PBS-0.05% Tween 20 or 1% BSA/PBS-0.05% Tween 20, pH 7.5 and/or pH 6, and added for 2 hours at room temperature with shaking. After washing, an anti-mouse IL-2 biotin-labelled detection antibody (JES6-5H4, ThermoFisher), anti-6×-His Tag HRP conjugate antibody (Invitrogen, 1 mg/mL, cat #MA1-21315-HRP), or anti-human IgG HRP conjugate antibody (SouthernBiotech) was added, and binding was detected using Ultra Streptavidin HRP (ThermoFisher). The plate was developed by adding the chromogenic tetramethylbenzidine substrate (Ultra TMB, ThermoFisher). The reaction was stopped by addition of 0.5 M H2SO4, and the absorbance was read at 450-650 nm. […] Moreover, when the same pH-dependent heparin binding motif was inserted into different locations of IL-2 fusion proteins, all resulting proteins bound heparin at pH 6 with similar high affinities (FIGS. 4F and 4G). Likewise, similar binding affinities were observed when another heparin targeting sequence was engineered into different sites of IL-2 fusion proteins (FIGS. 4H-4I). […] The heparin binding activity is recovered when a heparin binding motif is engineered into the linker polypeptide-IL-15 fusion protein (Construct WWW). Finally, linker polypeptide-IL-2 fusion proteins engineered with a heparin binding site show about 30-fold enhanced binding to heparin in vitro compared to constructs lacking a heparin binding site (Construct EEE and Construct NNNN vs. Construct AAA and Construct NNN, respectively) as shown in FIG. 4M.

collagen = assay: Collagen-agarose pulldown assay with IL-2 immunoblot; assay type: binding; conditions: for binding to collagen-agarose beads (pulldown): 18-22 hours at 4° C.
Method: To test binding to collagen, a pulldown assay using agarose cross-linked to collagen (Sigma) was performed. IL-2 fusion proteins were incubated with collagen-agarose or control agarose beads for 18-22 hours at 4° C. with gentle rotation in 1% BSA/PBS-0.05% Tween 20. After washing, proteins bound to the beads were eluted by resuspending beads in SDS sample buffer (Life Technologies). Bound proteins were then separated by SDS-PAGE on 4-12% BisTris gradient gel, followed by immunoblotting with goat anti-mouse IL-2 polyclonal antibody (AF-402-NA; R&D systems). Donkey anti-goat HRP-conjugated antibody was used for detection (Jackson Immuno Research, West Grove, PA), and the blot was developed using the SuperSignal West Femto Maximum sensitivity detection reagent (ThermoFisher) following the manufacturer's recommendations.

fibronectin, sequence (P02751 32-2477, species assumed): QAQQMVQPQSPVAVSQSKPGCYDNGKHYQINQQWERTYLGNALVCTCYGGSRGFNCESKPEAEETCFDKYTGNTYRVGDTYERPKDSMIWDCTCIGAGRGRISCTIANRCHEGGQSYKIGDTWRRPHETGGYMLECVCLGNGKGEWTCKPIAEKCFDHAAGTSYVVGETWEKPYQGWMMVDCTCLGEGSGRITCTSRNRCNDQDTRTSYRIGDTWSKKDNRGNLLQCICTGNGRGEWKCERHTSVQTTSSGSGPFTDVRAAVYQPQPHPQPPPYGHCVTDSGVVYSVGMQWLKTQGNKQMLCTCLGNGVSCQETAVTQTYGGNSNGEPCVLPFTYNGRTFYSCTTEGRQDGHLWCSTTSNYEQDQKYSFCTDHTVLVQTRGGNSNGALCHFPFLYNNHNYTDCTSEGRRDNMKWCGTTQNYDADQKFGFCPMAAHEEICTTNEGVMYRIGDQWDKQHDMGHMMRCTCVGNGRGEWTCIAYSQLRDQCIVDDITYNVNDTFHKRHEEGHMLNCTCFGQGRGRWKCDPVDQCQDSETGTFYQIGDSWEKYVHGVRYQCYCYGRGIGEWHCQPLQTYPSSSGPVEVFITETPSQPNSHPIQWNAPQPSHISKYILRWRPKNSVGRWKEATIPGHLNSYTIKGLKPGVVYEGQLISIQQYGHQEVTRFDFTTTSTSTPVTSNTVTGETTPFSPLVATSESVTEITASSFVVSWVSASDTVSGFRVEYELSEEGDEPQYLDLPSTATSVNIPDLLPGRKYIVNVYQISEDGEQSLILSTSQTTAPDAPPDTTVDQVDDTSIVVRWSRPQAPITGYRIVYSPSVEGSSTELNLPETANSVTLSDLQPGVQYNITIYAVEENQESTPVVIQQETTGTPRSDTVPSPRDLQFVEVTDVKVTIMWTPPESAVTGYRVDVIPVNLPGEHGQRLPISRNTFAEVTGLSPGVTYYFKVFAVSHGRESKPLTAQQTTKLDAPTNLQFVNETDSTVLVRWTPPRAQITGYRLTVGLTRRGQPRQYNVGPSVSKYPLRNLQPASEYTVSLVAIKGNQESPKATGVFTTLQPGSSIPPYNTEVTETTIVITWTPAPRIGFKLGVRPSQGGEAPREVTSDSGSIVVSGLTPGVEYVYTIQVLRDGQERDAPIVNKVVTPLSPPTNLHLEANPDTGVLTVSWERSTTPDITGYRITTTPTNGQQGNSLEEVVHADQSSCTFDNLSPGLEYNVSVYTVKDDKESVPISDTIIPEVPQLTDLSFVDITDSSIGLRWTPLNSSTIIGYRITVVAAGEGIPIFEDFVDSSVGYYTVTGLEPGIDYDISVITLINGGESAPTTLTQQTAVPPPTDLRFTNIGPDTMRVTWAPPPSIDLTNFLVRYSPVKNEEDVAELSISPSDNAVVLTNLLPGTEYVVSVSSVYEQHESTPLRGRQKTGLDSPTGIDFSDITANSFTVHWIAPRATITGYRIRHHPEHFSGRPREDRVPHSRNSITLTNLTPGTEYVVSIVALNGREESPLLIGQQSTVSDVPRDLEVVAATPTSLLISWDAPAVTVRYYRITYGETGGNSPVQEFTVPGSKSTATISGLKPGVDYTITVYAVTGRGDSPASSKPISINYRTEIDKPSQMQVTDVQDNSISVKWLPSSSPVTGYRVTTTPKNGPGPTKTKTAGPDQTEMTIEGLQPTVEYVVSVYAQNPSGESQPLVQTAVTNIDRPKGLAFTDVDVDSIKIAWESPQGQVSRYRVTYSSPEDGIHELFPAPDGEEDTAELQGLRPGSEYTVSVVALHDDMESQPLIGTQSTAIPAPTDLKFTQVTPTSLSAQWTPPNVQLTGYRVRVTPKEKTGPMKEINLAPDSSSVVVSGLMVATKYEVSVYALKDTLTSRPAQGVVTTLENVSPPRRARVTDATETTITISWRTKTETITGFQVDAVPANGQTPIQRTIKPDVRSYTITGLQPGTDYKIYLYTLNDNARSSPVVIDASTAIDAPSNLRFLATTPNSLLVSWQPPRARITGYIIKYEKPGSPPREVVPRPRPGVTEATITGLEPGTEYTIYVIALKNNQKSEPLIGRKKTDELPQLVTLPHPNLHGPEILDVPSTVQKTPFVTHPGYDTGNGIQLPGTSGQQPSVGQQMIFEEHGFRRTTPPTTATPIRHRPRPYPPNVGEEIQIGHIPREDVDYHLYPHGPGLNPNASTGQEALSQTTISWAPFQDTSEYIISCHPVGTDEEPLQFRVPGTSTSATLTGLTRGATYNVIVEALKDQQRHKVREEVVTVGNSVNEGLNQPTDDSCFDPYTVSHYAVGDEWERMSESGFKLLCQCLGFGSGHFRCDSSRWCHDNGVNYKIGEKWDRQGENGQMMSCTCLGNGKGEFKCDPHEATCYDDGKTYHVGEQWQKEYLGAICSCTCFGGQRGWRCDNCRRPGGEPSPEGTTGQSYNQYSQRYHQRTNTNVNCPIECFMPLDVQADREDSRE

B1: Construct EE: mIL2-SGG-GGWSHW-MMPcs1-2x(G4S)-mIL2Ra(1-215)-muIgG1Fc; pH fibronectin (protein)
chain: APTSSSTSSSTAEAQQQQQQQQQQQQHLEQLLMDLQELLSRMENYRNLKLPRMLTFKFYLPKQATELKDLQCLEDELGPLRHVLDLTQSKSFQLEDAENFISNIRVTVVKLKGSDNTFECQFDDESATVVDFLRRWIAFCQSIISTSPQSGGGGWSHWGPLGVRGGGGGSGGGGSELCLYDPPEVPNATFKALSYKNGTILNCECKRGFRRLKELVYMRCLGNSWSSNCQCTSNSHDKSRKQVTAQLEHQKEQQTTTDMQKPTQSMHQENLTGHCREPPPWKHEDSKRIYHFVEGQSVHYECIPGYKALQRGPAISICKMKCGKTGWTQPQLTCVDEREHHRFLASEESQGSRNSSPESETSCPITTTDFPQPTETTAMTETFVLTMEYKGCKPCICTVPEVSSVFIFPPKPKDVLTITLTPKVTCVVVDISKDDPEVQFSWFVDDVEVHTAQTQPREEQFNSTFRSVSELPIMHQDWLNGKEFKCRVNSAAFPAPIEKTISKTKGRPKAPQVYTIPPPKEQMAKDKVSLTCMITDFFPEDITVEWQWNGQPAENYKNTQPIMDTDGSYFVYSKLNVQKSNWEAGNTFTCSVLHEGLHNHHTEKSLSHSPGK
modifications: Synthetic: Construct EE
notes: mIL2-SGG-GGWSHW-MMPcs1-2x(G4S)-mIL2Ra(1-215)-muIgG1Fc; pH fibronectin
fusion protein binding to fibronectin (fibronectin; acidic pH (pH 6)): dose-dependent binding
fusion protein binding to fibronectin (fibronectin; pH 7.5 (neutral)): no binding

B2: Construct NN: mIL2-2x(SG4)-MMPcs1-2x(GHHPH)-mIL2Ra(1-215)-muIgG1Fc; pH heparin (protein)
chain: APTSSSTSSSTAEAQQQQQQQQQQQQHLEQLLMDLQELLSRMENYRNLKLPRMLTFKFYLPKQATELKDLQCLEDELGPLRHVLDLTQSKSFQLEDAENFISNIRVTVVKLKGSDNTFECQFDDESATVVDFLRRWIAFCQSIISTSPQSGGGGSGGGGGPLGVRGGHHPHGHHPHELCLYDPPEVPNATFKALSYKNGTILNCECKRGFRRLKELVYMRCLGNSWSSNCQCTSNSHDKSRKQVTAQLEHQKEQQTTTDMQKPTQSMHQENLTGHCREPPPWKHEDSKRIYHFVEGQSVHYECIPGYKALQRGPAISICKMKCGKTGWTQPQLTCVDEREHHRFLASEESQGSRNSSPESETSCPITTTDFPQPTETTAMTETFVLTMEYKGCKPCICTVPEVSSVFIFPPKPKDVLTITLTPKVTCVVVDISKDDPEVQFSWFVDDVEVHTAQTQPREEQFNSTFRSVSELPIMHQDWLNGKEFKCRVNSAAFPAPIEKTISKTKGRPKAPQVYTIPPPKEQMAKDKVSLTCMITDFFPEDITVEWQWNGQPAENYKNTQPIMDTDGSYFVYSKLNVQKSNWEAGNTFTCSVLHEGLHNHHTEKSLSHSPGK
modifications: Synthetic: Construct NN
notes: mIL2-2x(SG4)-MMPcs1-2x(GHHPH)-mIL2Ra(1-215)-muIgG1Fc; pH heparin
fusion protein binding to heparin [1]: mimicked the Construct CC binding profile

B4: Construct Y: mIL2(C140S)-VRIQRKKEKMKET-MMPcs1-2x(G4S)-mIL2Ra(1-215)-muIgG1Fc; heparin (protein)
chain: APTSSSTSSSTAEAQQQQQQQQQQQQHLEQLLMDLQELLSRMENYRNLKLPRMLTFKFYLPKQATELKDLQCLEDELGPLRHVLDLTQSKSFQLEDAENFISNIRVTVVKLKGSDNTFECQFDDESATVVDFLRRWIAFSQSIISTSPQVRIQRKKEKMKETGPLGVRGGGGGSGGGGSELCLYDPPEVPNATFKALSYKNGTILNCECKRGFRRLKELVYMRCLGNSWSSNCQCTSNSHDKSRKQVTAQLEHQKEQQTTTDMQKPTQSMHQENLTGHCREPPPWKHEDSKRIYHFVEGQSVHYECIPGYKALQRGPAISICKMKCGKTGWTQPQLTCVDEREHHRFLASEESQGSRNSSPESETSCPITTTDFPQPTETTAMTETFVLTMEYKIEGRMDGCKPCICTVPEVSSVFIFPPKPKDVLTITLTPKVTCVVVDISKDDPEVQFSWFVDDVEVHTAQTQPREEQFNSTFRSVSELPIMHQDWLNGKEFKCRVNSAAFPAPIEKTISKTKGRPKAPQVYTIPPPKEQMAKDKVSLTCMITDFFPEDITVEWQWNGQPAENYKNTQPIMDTDGSYFVYSKLNVQKSNWEAGNTFTCSVLHEGLHNHHTEKSLSHSPGK
modifications: Synthetic: Construct Y
notes: mIL2(C140S)-…-MMPcs1-2x(G4S)-mIL2Ra(1-215)-muIgG1Fc; heparin
fusion protein binding to heparin [1]: bound heparin in a dose-dependent manner and with higher affinity than Construct B

Second part, led by results:

heparin binding EC50 value, fold higher than Construct CC [1]: greater than 100 fold
fusion protein binding to fibronectin (fibronectin; acidic pH (pH 6)): No significant binding
fusion protein binding to fibronectin (fibronectin; pH 7.5 (neutral)): No significant binding
B3: Construct B: mIL2-2x(SG4)-MMPcs1-2x(G4S)-mIL2Ralpha(1-215)-mIgG1Fc; no TME (protein)
chain: B2 chain with H168G, H169G, P170G, H171S, H173G, H174G, P175G, H176S
modifications: Synthetic: Construct B polypeptide sequence: m IL2-2x(SG4) MMPcs1 2x (G4S) IL2Ralpha mIgG1 Fc
notes: mIL2-2x(SG4)-MMPcs1-2x(G4S)-mIL2Ralpha(1-215)-mIgG1Fc; no TME
fusion protein binding to heparin [1]: much weaker

EC50 ([1]; acidic pH, read-out: heparin binding EC50): ~10 nM
B5: Construct CC: mIL2-2x(GHHPH)-MMPcs1-2x(G4S)-mIL2Ra(1-215)-muIgG1Fc; pH heparin (protein)
chain: APTSSSTSSSTAEAQQQQQQQQQQQQHLEQLLMDLQELLSRMENYRNLKLPRMLTFKFYLPKQATELKDLQCLEDELGPLRHVLDLTQSKSFQLEDAENFISNIRVTVVKLKGSDNTFECQFDDESATVVDFLRRWIAFCQSIISTSPQGHHPHGHHPHGPLGVRGGGGGSGGGGSELCLYDPPEVPNATFKALSYKNGTILNCECKRGFRRLKELVYMRCLGNSWSSNCQCTSNSHDKSRKQVTAQLEHQKEQQTTTDMQKPTQSMHQENLTGHCREPPPWKHEDSKRIYHFVEGQSVHYECIPGYKALQRGPAISICKMKCGKTGWTQPQLTCVDEREHHRFLASEESQGSRNSSPESETSCPITTTDFPQPTETTAMTETFVLTMEYKGCKPCICTVPEVSSVFIFPPKPKDVLTITLTPKVTCVVVDISKDDPEVQFSWFVDDVEVHTAQTQPREEQFNSTFRSVSELPIMHQDWLNGKEFKCRVNSAAFPAPIEKTISKTKGRPKAPQVYTIPPPKEQMAKDKVSLTCMITDFFPEDITVEWQWNGQPAENYKNTQPIMDTDGSYFVYSKLNVQKSNWEAGNTFTCSVLHEGLHNHHTEKSLSHSPGK
modifications: Synthetic: Construct CC
notes: mIL2-2x(GHHPH)-MMPcs1-2x(G4S)-mIL2Ra(1-215)-muIgG1Fc; pH heparin
fusion protein binding to heparin [1]: bound heparin in a dose-dependent manner and with higher affinity than Construct B
pH preference of heparin binding ([1]; pH 6 vs pH 7.5): preferentially bound heparin at acidic pH

binding to collagen-agarose beads (pulldown) (collagen): specifically bound
B6: Construct II: mIL2-LHERHLNNN-MMPcs1-2x(G4S)-mIL2Ra(1-215)-muIgG1Fc; collagen I (protein)
chain: B5 chain with G150S, H151L, P153E, H154R, G155H, H156L, H157N, P158N, H159N
modifications: Synthetic: Construct II
notes: mIL2-…-MMPcs1-2x(G4S)-mIL2Ra(1-215)-muIgG1Fc; collagen I

binding to collagen-agarose beads (pulldown) (collagen): specifically bound
B7: Construct GG: mIL2-SGG-KLWVLPK-MMPcs1-2x(G4S)-mIL2Ra(1-215)-muIgG1Fc; collagen IV (protein)
chain: B5 chain with G150S, H151G, H152G, P153K, H154L, G155W, H156V, H157L, H159K
modifications: Synthetic: Construct GG
notes: mIL2-SGG-KLWVLPK-MMPcs1-2x(G4S)-mIL2Ra(1-215)-muIgG1Fc; collagen IV
fraction bound, fold higher than the fraction of bound Construct B (collagen; blot quantitation): 2.5 fold
